Test results: the RNAGym collection of RNA variant scans (doi:10.1093/molbev/msab373)

B1: Azoarcus group I ribozyme (parent)
chain: GUGCCUUGCGCCGGGAAACCACGCAAGGGAUGGUGUCAAAUUCGGCGAAACCUAAGCGCCCGCCCGGGCGUAUGGCAACGCCGAGCCAAGCUUCGGCGCCUGCGCCGAUGAAGGUGUAGAGACUAGACGGCACCCACCUAAGGCAAACGCUAUGGUGAAGGCAUAGUCCAGGGAGUGGCGAAAGUCACACAAACCGG

Variants of: B1
Experiment: reverse-splicing fitness (ratio to wild type); higher = more active; in vitro selection; Mg2+ level not given
In short: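 An in vitro group I ribozyme library with randomized positions was T7-transcribed and gel-purified. In triplicate, 10 pmol RNA in EPPS pH 7.5 was reacted with 50 pmoles of a 30-nt RNA substrate for 1 h at 37 °C across several added MgCl2 levels (1–48 mM), then stopped with EDTA. Products were reverse transcribed from a substrate-complementary primer, PCR-amplified and sequenced (HiSeq 4000). Fitness is a variant's read proportion after selection over that before, normalised to wild type.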

Variant | reverse-splicing fitness
C82G A111G C150G C169G U176G | 0.00613
C82G A111U A120C A145C C150A C169U | 0.01
C82G A111U A120C A145C C150A C169G | 0.00886
C82G A111U A120C A145C C150A C169A | 0.01
C82G A111G C150U U176G | 0.0512
C82G A111G C150U U176A | 0.128
C82G A111G C150U U176C | 0.144
C82G A111U A120C A145G C150U C169G U176G | 0.00632
C82G A111U A120C A145G C150U C169G U176C | 0.0196
C82G A111U A120C A145G C150U C169G U176A | 0.0154
C82G A111U A120C A145G C150A U176G | 0.0103
C82G A111U A120C A145G C150A U176C | 0.0228
C82G A111U A120C A145G C150A U176A | 0.011
C82G A111G C169G U176C | 0.0239
C82G A111G C169G U176A | 0.0197
C82G A111G C169G U176G | 0.0047
C82G A111G U176A | 0.277
C82G A111G U176C | 0.279
C82G A111G U176G | 0.0956
C82G A111U A120C A145C C150G C169U U176G | 0.00524
C82G A111U A120C A145C C150G C169U U176C | 0.0113

Variant | reverse-splicing fitness
C82G A111U A120C A145C C150G C169U U176A | 0.00676
C82G A111U A120C A145C C150U C169G U176A | 0.0279
C82G A111U A120C A145C C150U C169G U176G | 0.00776
C82G A111U A120C A145C C150U C169G U176C | 0.0221
C82G A111U A120C A145C C150G U176G | 0.00354
C82G A111U A120C A145C C150G U176C | 0.00843
C82G A111U A120C A145C C150G U176A | 0.00451
C82G A111U A120C A145C C150U C169A U176C | 0.0115
C82G A111U A120C A145C C150U C169A U176A | 0.0164
C82G A111U A120C A145C C150U C169A U176G | 0.00651
C82G A111U A120C A145G C150A C169A U176C | 0.026
C82G A111U A120C A145G C150A C169A U176A | 0.02
C82G A111U A120C A145G C150A C169A U176G | 0.00968
C82G A111U A120C A145G C150G C169A U176G | 0.0104
C82G A111U A120C A145G C150G C169A U176C | 0.0149
C82G A111U A120C A145G C150G C169A U176A | 0.0145
C82G A111U A120C A145C C150G C169A U176G | 0.00634
C82G A111U A120C A145C C150G C169A U176C | 0.00917
C82G A111U A120C A145C C150G C169A U176A | 0.0101
C82G A111U A120C A145G C150A C169U U176A | 0.0148
C82G A111U A120C A145G C150A C169U U176G | 0.00802

Variant | reverse-splicing fitness
C82G A111U A120C A145G C150A C169U U176C | 0.0159
C82G A111G C150U C169A | 0.0104
C82G A111G C150U C169U | 0.0123
C82G A111G C150U C169G | 0.00932
C82G A111U A120C A145C C150G C169G U176A | 0.0106
C82G A111U A120C A145C C150G C169G U176G | 0.00606
C82G A111U A120C A145C C150G C169G U176C | 0.00909
C82G A111U A120C A145G C150U U176A | 0.015
C82G A111U A120C A145G C150U U176C | 0.0292
C82G A111U A120C A145G C150U U176G | 0.00905
C82G A111G C169A U176A | 0.0162
C82G A111G C169A U176C | 0.0224
C82G A111G C169A U176G | 0.00537
C82G A111U A120C A145G C150U C169A U176C | 0.0177
C82G A111U A120C A145G C150U C169A U176A | 0.0177
C82G A111U A120C A145G C150U C169A U176G | 0.00812
C82G A111U A120C A145C C150G C169A | 0.0104
C82G A111U A120C A145C C150G C169U | 0.00834
C82G A111U A120C A145C C150G C169G | 0.00735
C82G A111U A120C A145G C169A | 0.0109
C82G A111U A120C A145G C169G | 0.00963

Variant | reverse-splicing fitness
C82G A111U A120C A145C C150A C169A U176G | 0.00706
C82G A111U A120C A145C C150A C169A U176A | 0.0162
C82G A111U A120C A145C C150A C169A U176C | 0.0121
C82G A111U A120C A145G C150G U176A | 0.00813
C82G A111U A120C A145G C150G U176G | 0.00789
C82G A111U A120C A145G C150G U176C | 0.0118
C82G A111U A120C A145C U176G | 0.00674
C82G A111U A120C A145C U176A | 0.0155
C82G A111U A120C A145C U176C | 0.0234
C82G A111G C169A | 0.00879
C82G A111G C169G | 0.00859
C82G A111G C169U | 0.0143
C82G A111G C150U C169U U176A | 0.0147
C82G A111G C150U C169U U176C | 0.0172
C82G A111G C150U C169U U176G | 0.00785
C82G A111U A120C A145C C150U | 0.0168
C82G A111U A120C A145C C150A | 0.0109
C82G A111U A120C A145C C150G | 0.0104
C82G A111U A120C A145C C169G U176A | 0.0301
C82G A111U A120C A145C C169G U176G | 0.00667
C82G A111U A120C A145C C169G U176C | 0.0236
